From the supplement of paper PMC9233669
Fewer inactive variants are shown than the library holds.

Tests used:
biotinyl-Phe-oxazolone = assay: self-aminoacylation, catalytic enhancement (BFO) (fold over background); higher = more active; k-Seq, kA / k0A0; sequences stand for … in GGGAAUGGAUCCACAUCUACGAAUUC…UUCACUGCAGACUUGACGAAGCUG
Outline: (§1)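 Mutagenized RNA pools (0.43 μM; 21-nt variable region) were treated with 2–1250 μM of each biotinyl-aminoacyl-oxazolone. Conditions were 50 μL HEPES/NaCl/KCl/MgCl2/CaCl2 buffer, 5% acetonitrile, pH 6.9–7.0, room temperature, 90 minutes. Catalytic enhancement, the median kA relative to the uncatalyzed rate, was derived from streptavidin capture, qPCR and Illumina sequencing.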

biotinyl-Met-oxazolone = assay: self-aminoacylation, catalytic enhancement (BMO) (fold over background); higher = more active; k-Seq, kA / k0A0; sequences stand for … in GGGAAUGGAUCCACAUCUACGAAUUC…UUCACUGCAGACUUGACGAAGCUG
Outline: as §1

biotinyl-Trp-oxazolone = assay: self-aminoacylation, catalytic enhancement (BWO) (fold over background); higher = more active; k-Seq, kA / k0A0; sequences stand for … in GGGAAUGGAUCCACAUCUACGAAUUC…UUCACUGCAGACUUGACGAAGCUG
Outline: as §1

biotinyl-Leu-oxazolone = assay: self-aminoacylation, catalytic enhancement (BLO) (fold over background); higher = more active; k-Seq, kA / k0A0; sequences stand for … in GGGAAUGGAUCCACAUCUACGAAUUC…UUCACUGCAGACUUGACGAAGCUG
Outline: as §1

## AAAGUUGCUAAUAGUCGCAAG [Fam3.1 aminoacylation ribozyme variant]
biotinyl-Phe-oxazolone
  self-aminoacylation: 3.77
biotinyl-Met-oxazolone
  self-aminoacylation: 2.06

## AAAUUUGCUAAUUGUCGCAAG [Fam3.1 aminoacylation ribozyme variant]
biotinyl-Met-oxazolone
  self-aminoacylation: 2.03

## AAGCUUGCUAAUAGUCGCAAA [Fam3.1 aminoacylation ribozyme variant]
biotinyl-Phe-oxazolone
  self-aminoacylation: 2.75
biotinyl-Met-oxazolone
  self-aminoacylation: 2.21
biotinyl-Trp-oxazolone
  self-aminoacylation: 2.2

## AAGUUCGCGAAUAGUCGCAAG [Fam3.1 aminoacylation ribozyme variant]
biotinyl-Phe-oxazolone
  self-aminoacylation: 5.66
biotinyl-Met-oxazolone
  self-aminoacylation: 2.31
biotinyl-Trp-oxazolone
  self-aminoacylation: 3.3

## AAGUUUGCGAAUAGUCGCAAU [Fam3.1 aminoacylation ribozyme variant]
biotinyl-Phe-oxazolone
  self-aminoacylation: 6.18
biotinyl-Met-oxazolone
  self-aminoacylation: 2.13

## ACGUUUGCUAAAAGUCGCAAG [Fam3.1 aminoacylation ribozyme variant]
biotinyl-Phe-oxazolone
  self-aminoacylation: 3.93
biotinyl-Met-oxazolone
  self-aminoacylation: 2.09
biotinyl-Trp-oxazolone
  self-aminoacylation: 3.43

## AGGUUUGCUAAAAGUCGCAAG [Fam3.1 aminoacylation ribozyme variant]
biotinyl-Phe-oxazolone
  self-aminoacylation: 10.5
biotinyl-Met-oxazolone
  self-aminoacylation: 2.13
biotinyl-Trp-oxazolone
  self-aminoacylation: 4.38

## AUACACCUAGGUCAUCGGCUG [Fam2.2 aminoacylation ribozyme variant]
biotinyl-Phe-oxazolone
  self-aminoacylation: 4
biotinyl-Met-oxazolone
  self-aminoacylation: 2.13
biotinyl-Leu-oxazolone
  self-aminoacylation: 2.03

## AUACUUCAAACAAUCGGCCUG [Fam1A.1 aminoacylation ribozyme variant]
biotinyl-Phe-oxazolone
  self-aminoacylation: 20.7
biotinyl-Leu-oxazolone
  self-aminoacylation: 2.02
biotinyl-Trp-oxazolone
  self-aminoacylation: 15.5

## AUUAACCUAGGACAUCGGGUG [Fam2.2 aminoacylation ribozyme variant]
biotinyl-Phe-oxazolone
  self-aminoacylation: 14.2
biotinyl-Leu-oxazolone
  self-aminoacylation: 3.2
biotinyl-Trp-oxazolone
  self-aminoacylation: 2.82

## AUUACCAUGCUCAUCGAGUGA [Fam2.1 aminoacylation ribozyme variant]
biotinyl-Phe-oxazolone
  self-aminoacylation: 2.98
biotinyl-Met-oxazolone
  self-aminoacylation: 2.63
biotinyl-Leu-oxazolone
  self-aminoacylation: 2.12
biotinyl-Trp-oxazolone
  self-aminoacylation: 2.15

## AUUACCCUGGACAUCAAGUGA [Fam2.1 aminoacylation ribozyme variant]
biotinyl-Phe-oxazolone
  self-aminoacylation: 5.55
biotinyl-Met-oxazolone
  self-aminoacylation: 2.33
biotinyl-Leu-oxazolone
  self-aminoacylation: 2.29
biotinyl-Trp-oxazolone
  self-aminoacylation: 2.98

## AUUACCCUGGUCAACGAGUGU [Fam2.1 aminoacylation ribozyme variant]
biotinyl-Phe-oxazolone
  self-aminoacylation: 6.18
biotinyl-Met-oxazolone
  self-aminoacylation: 2.91
biotinyl-Leu-oxazolone
  self-aminoacylation: 3
biotinyl-Trp-oxazolone
  self-aminoacylation: 3.43

## AUUACCCUUGUCAUCGUGUGA [Fam2.1 aminoacylation ribozyme variant]
biotinyl-Phe-oxazolone
  self-aminoacylation: 5.78
biotinyl-Met-oxazolone
  self-aminoacylation: 2.59
biotinyl-Leu-oxazolone
  self-aminoacylation: 2.69
biotinyl-Trp-oxazolone
  self-aminoacylation: 2.88

## AUUCACCCAGGUCAUAGGGUG [Fam2.2 aminoacylation ribozyme variant]
biotinyl-Phe-oxazolone
  self-aminoacylation: 7.85
biotinyl-Leu-oxazolone
  self-aminoacylation: 2.46
biotinyl-Trp-oxazolone
  self-aminoacylation: 2.08

## AUUCACCCAGGUCGUCGGGUG [Fam2.2 aminoacylation ribozyme variant]
biotinyl-Phe-oxazolone
  self-aminoacylation: 9.93
biotinyl-Leu-oxazolone
  self-aminoacylation: 2.84

## AUUCACCUACGUCAUCUGGUG [Fam2.2 aminoacylation ribozyme variant]
biotinyl-Phe-oxazolone
  self-aminoacylation: 6.74
biotinyl-Met-oxazolone
  self-aminoacylation: 2.09
biotinyl-Leu-oxazolone
  self-aminoacylation: 2.24

## AUUCACCUAGGUCAUCGGCAG [Fam2.2 aminoacylation ribozyme variant]
biotinyl-Leu-oxazolone
  self-aminoacylation: 2.03

## AUUCGCCUAGGUCAUAGGGUG [Fam2.2 aminoacylation ribozyme variant]
biotinyl-Phe-oxazolone
  self-aminoacylation: 7.92
biotinyl-Met-oxazolone
  self-aminoacylation: 2.16
biotinyl-Leu-oxazolone
  self-aminoacylation: 2.47

## AUUGACCUAGCUCAUCGGGUG [Fam2.2 aminoacylation ribozyme variant]
biotinyl-Phe-oxazolone
  self-aminoacylation: 11
biotinyl-Met-oxazolone
  self-aminoacylation: 2.14
biotinyl-Trp-oxazolone
  self-aminoacylation: 2.71

## AUUUCCCUGGUCAUCGAGCGA [Fam2.1 aminoacylation ribozyme variant]
biotinyl-Met-oxazolone
  self-aminoacylation: 2.25
biotinyl-Leu-oxazolone
  self-aminoacylation: 2.18
biotinyl-Trp-oxazolone
  self-aminoacylation: 2.59

## CCACACUUCAAGCAAUCGCUU [Fam1B.1 aminoacylation ribozyme variant]
biotinyl-Met-oxazolone
  self-aminoacylation: 2.06
biotinyl-Leu-oxazolone
  self-aminoacylation: 2.09

## CCACACUUCAAGCAAUCGGCU [Fam1B.1 aminoacylation ribozyme variant]
biotinyl-Leu-oxazolone
  self-aminoacylation: 2.08
biotinyl-Trp-oxazolone
  self-aminoacylation: 2.2

## CCACACUUCAAGCCAUCGCUC [Fam1B.1 aminoacylation ribozyme variant]
biotinyl-Leu-oxazolone
  self-aminoacylation: 2.19
biotinyl-Trp-oxazolone
  self-aminoacylation: 2.72

## CCACGCUUCAAACAAUCGGUC [Fam1B.1 aminoacylation ribozyme variant]
biotinyl-Phe-oxazolone
  self-aminoacylation: 92.8
biotinyl-Leu-oxazolone
  self-aminoacylation: 2.17
biotinyl-Trp-oxazolone
  self-aminoacylation: 45.3

## CCAUGCUUCAAGCAAUCGGUC [Fam1B.1 aminoacylation ribozyme variant]
biotinyl-Phe-oxazolone
  self-aminoacylation: 76.2
biotinyl-Leu-oxazolone
  self-aminoacylation: 2.66
biotinyl-Trp-oxazolone
  self-aminoacylation: 39

## CCCCACUUCAAGCAAUCGGUA [Fam1B.1 aminoacylation ribozyme variant]
biotinyl-Phe-oxazolone
  self-aminoacylation: 11.8
biotinyl-Leu-oxazolone
  self-aminoacylation: 2.71
biotinyl-Trp-oxazolone
  self-aminoacylation: 3.44

## CCCCUCUUCAAGCAAUCGGUC [Fam1B.1 aminoacylation ribozyme variant]
biotinyl-Phe-oxazolone
  self-aminoacylation: 49.1
biotinyl-Leu-oxazolone
  self-aminoacylation: 2.09
biotinyl-Trp-oxazolone
  self-aminoacylation: 31.2

## CCUCACUUCAAGCAAUCGGGC [Fam1B.1 aminoacylation ribozyme variant]
biotinyl-Leu-oxazolone
  self-aminoacylation: 2.32
biotinyl-Trp-oxazolone
  self-aminoacylation: 3.32

## CCUCGCUUCAAGCAAUCGGUC [Fam1B.1 aminoacylation ribozyme variant]
biotinyl-Phe-oxazolone
  self-aminoacylation: 81.2
biotinyl-Leu-oxazolone
  self-aminoacylation: 2.24
biotinyl-Trp-oxazolone
  self-aminoacylation: 36

## CGCCACUUCAAGCAAUCGGUC [Fam1B.1 aminoacylation ribozyme variant]
biotinyl-Phe-oxazolone
  self-aminoacylation: 37.1
biotinyl-Leu-oxazolone
  self-aminoacylation: 2.26
biotinyl-Trp-oxazolone
  self-aminoacylation: 24.2

## CUACCUCAAACAAUCGGGCUG [Fam1A.1 aminoacylation ribozyme variant]
biotinyl-Phe-oxazolone
  self-aminoacylation: 2.01
biotinyl-Met-oxazolone
  self-aminoacylation: 2.02
biotinyl-Leu-oxazolone
  self-aminoacylation: 2.4

## CUACGUCAAACAAUCGCUCUG [Fam1A.1 aminoacylation ribozyme variant]
biotinyl-Phe-oxazolone
  self-aminoacylation: 3.08
biotinyl-Leu-oxazolone
  self-aminoacylation: 2.07

## CUACUUCAAAUAAUCGGUCUG [Fam1A.1 aminoacylation ribozyme variant]
biotinyl-Phe-oxazolone
  self-aminoacylation: 18.3
biotinyl-Trp-oxazolone
  self-aminoacylation: 10.5

## CUACUUCAACAAAUCGGUCUG [Fam1A.1 aminoacylation ribozyme variant]
biotinyl-Phe-oxazolone
  self-aminoacylation: 7.2
biotinyl-Trp-oxazolone
  self-aminoacylation: 5.45

## CUACUUCAACCAAUCGGUCGG [Fam1A.1 aminoacylation ribozyme variant]
biotinyl-Phe-oxazolone
  self-aminoacylation: 14.3
biotinyl-Trp-oxazolone
  self-aminoacylation: 8.86

## CUACUUCAACUAAUCGGUCUG [Fam1A.1 aminoacylation ribozyme variant]
biotinyl-Phe-oxazolone
  self-aminoacylation: 12.9
biotinyl-Trp-oxazolone
  self-aminoacylation: 8.63

## CUACUUCAAUCAAUCGGCCUG [Fam1A.1 aminoacylation ribozyme variant]
biotinyl-Phe-oxazolone
  self-aminoacylation: 34.9
biotinyl-Leu-oxazolone
  self-aminoacylation: 2.56
biotinyl-Trp-oxazolone
  self-aminoacylation: 30.3

## CUCCUUCAAACAAUCGGUCUA [Fam1A.1 aminoacylation ribozyme variant]
biotinyl-Phe-oxazolone
  self-aminoacylation: 18.5
biotinyl-Trp-oxazolone
  self-aminoacylation: 9.25

## CUCCUUCAAUCAAUCGGUCUG [Fam1A.1 aminoacylation ribozyme variant]
biotinyl-Phe-oxazolone
  self-aminoacylation: 24.6
biotinyl-Trp-oxazolone
  self-aminoacylation: 18.4

## CUGCGUCAAACAAUCGGUCUG [Fam1A.1 aminoacylation ribozyme variant]
biotinyl-Phe-oxazolone
  self-aminoacylation: 8.22
biotinyl-Trp-oxazolone
  self-aminoacylation: 7.19

## CUGCUACAAACAAUCGGUCUG [Fam1A.1 aminoacylation ribozyme variant]
biotinyl-Phe-oxazolone
  self-aminoacylation: 2.73
biotinyl-Trp-oxazolone
  self-aminoacylation: 2.27

## CUGCUUCAAACAAUCGGUCAG [Fam1A.1 aminoacylation ribozyme variant]
biotinyl-Phe-oxazolone
  self-aminoacylation: 41.9
biotinyl-Trp-oxazolone
  self-aminoacylation: 23

## CUGCUUCAAAUAAUCGGUCUG [Fam1A.1 aminoacylation ribozyme variant]
biotinyl-Phe-oxazolone
  self-aminoacylation: 23.7
biotinyl-Trp-oxazolone
  self-aminoacylation: 17.4

## CUUCUUCAAACAAUCAGUCUG [Fam1A.1 aminoacylation ribozyme variant]
biotinyl-Phe-oxazolone
  self-aminoacylation: 12.3
biotinyl-Trp-oxazolone
  self-aminoacylation: 5.05

## CUUCUUCAAACAAUCGGUUUG [Fam1A.1 aminoacylation ribozyme variant]
biotinyl-Phe-oxazolone
  self-aminoacylation: 20.7
biotinyl-Trp-oxazolone
  self-aminoacylation: 13.8

## GAGUUUUCUAAUAGUCGCAAG [Fam3.1 aminoacylation ribozyme variant]
biotinyl-Phe-oxazolone
  self-aminoacylation: 3.59
biotinyl-Trp-oxazolone
  self-aminoacylation: 2.07

## GCACACUCCAAGCAAUCGGUC [Fam1B.1 aminoacylation ribozyme variant]
biotinyl-Phe-oxazolone
  self-aminoacylation: 2.35
biotinyl-Trp-oxazolone
  self-aminoacylation: 2.53

## GUACUUCAAGCAAUCGGUCUG [Fam1A.1 aminoacylation ribozyme variant]
biotinyl-Phe-oxazolone
  self-aminoacylation: 8.1
biotinyl-Trp-oxazolone
  self-aminoacylation: 7.17

## GUGUUUGCUAAUAGUCGCAAG [Fam3.1 aminoacylation ribozyme variant]
biotinyl-Phe-oxazolone
  self-aminoacylation: 5.9
biotinyl-Trp-oxazolone
  self-aminoacylation: 4.15

## GUUCACCUAGGUCAUAGGGUG [Fam2.2 aminoacylation ribozyme variant]
biotinyl-Phe-oxazolone
  self-aminoacylation: 2.11
biotinyl-Leu-oxazolone
  self-aminoacylation: 2.08
biotinyl-Trp-oxazolone
  self-aminoacylation: 2.22

## UAGUUUCCUAAUAGUCGCAAG [Fam3.1 aminoacylation ribozyme variant]
biotinyl-Phe-oxazolone
  self-aminoacylation: 2.31
biotinyl-Trp-oxazolone
  self-aminoacylation: 2.1

## UCACACUUCAAGUAAUCGGUC [Fam1B.1 aminoacylation ribozyme variant]
biotinyl-Phe-oxazolone
  self-aminoacylation: 12.7
biotinyl-Trp-oxazolone
  self-aminoacylation: 7.97

## UUACUUCAAACAAUCGGUCAG [Fam1A.1 aminoacylation ribozyme variant]
biotinyl-Phe-oxazolone
  self-aminoacylation: 8.02
biotinyl-Trp-oxazolone
  self-aminoacylation: 5.17

## UUACUUCAAUCAAUCGGUCUG [Fam1A.1 aminoacylation ribozyme variant]
biotinyl-Phe-oxazolone
  self-aminoacylation: 19.7
biotinyl-Trp-oxazolone
  self-aminoacylation: 15

## UUAUUUCAAACAAUCGGUCUG [Fam1A.1 aminoacylation ribozyme variant]
biotinyl-Phe-oxazolone
  self-aminoacylation: 5.5
biotinyl-Trp-oxazolone
  self-aminoacylation: 3.27
